Columns and labels:
Human CD33-V-HSA (human) = test: SPRi off-rate screen (IBIS MX96)
[1] = target: Human CD33 ECD-HSA (human); test: SPRi off-rate screen (IBIS MX96)
[2] = target: human CD3 on human T cells (human) (UniProt P07766); test: flow cytometry competition on purified human T cells; competitor 2 ug/mL AF488-labelled SP34-2
[3] = target: human CD3 on human T cells (human) (UniProt P07766); test: saturation binding on human pan T cells, flow cytometry (KdT)

Sequence of human CD3 on human T cells (human) (P07766 23-207 limits assumed): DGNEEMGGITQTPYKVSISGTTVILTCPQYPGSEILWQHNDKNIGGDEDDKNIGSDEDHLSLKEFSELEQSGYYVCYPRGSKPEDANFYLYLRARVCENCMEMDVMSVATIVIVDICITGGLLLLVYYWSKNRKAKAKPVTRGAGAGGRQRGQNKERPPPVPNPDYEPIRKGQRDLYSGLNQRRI

Substance	koff (Human CD33-V-HSA (human))	koff [1]	IC50 (read off the curve) [2]	Kd [3]
WM53 (antibody)	0.0378 s⁻¹	0.00237 s⁻¹		
SP34-2, commercial mouse anti-human CD3 antibody			1 µg/mL	5.6 nM

Reference: patent US20230322924A1
